Data as given in the supplement of paper PMC7125110.
± gives the standard error. Fewer inactive variants are shown than the library holds.

B1: glmS ribozyme (parent)
chain: AUAAAAGCGCCAGAACUACAGAAAUGUAGUUGACGAGGAGGAGGUUUAUCGAAUUUUCGGCGGAUGCCUCCAAA

What was measured:
Settings in all cases: with glucosamine-6-phosphate
glucosamine-6-phosphate [1] = variants of: B1; assay: self-cleavage kobs at 640 uM GlcN6P; higher = faster cleavage; RNA array
Summary of the method: (§1)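 kcat and KM were obtained from weighted Michaelis–Menten fits across concentrations of kobs values. Those came from one- or two-exponential decay fits to per-tile medians normalised to baseline and to non-cleaving reference variants. The variants were barcoded ribozymes transcribed in situ by E. coli RNA polymerase on sequenced MiSeq chips and tracked through a hybridised Cy3 probe at 37 °C, with 40 μM to 10 mM glucosamine-6-phosphate in HEPES/KCl/Mg(OAc)2 buffer flowed in.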

glucosamine-6-phosphate [2] = variants of: B1; assay: self-cleavage kobs at 2500 uM GlcN6P; higher = faster cleavage; RNA array
Summary of the method: as §1

glucosamine-6-phosphate [3] = variants of: B1; assay: self-cleavage kobs at 10000 uM GlcN6P; higher = faster cleavage; RNA array
Summary of the method: as §1

Variant	self-cleavage kobs at 640 uM GlcN6P (glucosamine-6-phosphate [1]) [s⁻¹]	self-cleavage kobs at 2500 uM GlcN6P (glucosamine-6-phosphate [2]) [s⁻¹]	self-cleavage kobs at 10000 uM GlcN6P (glucosamine-6-phosphate [3]) [s⁻¹]
AUAAAAGCGCCAGAACUACAGAAAUGUAGUUUACGAGUAGGAGGUUUAUCGAAUUUUCGGCGGAUGCCUCCAAA [G32U G38U]	< 1e-05	< 1e-05	
AUAAAAGCGCCAGAACUACAGAAAUGUAGUUUACGAGGAGGAGGUUUAUCGAAUUUUCGGCAGAUGACUCCAAA [G32U G62A C67A]	< 1e-05		
AUAAAAGCGCCAGAACUACAGAAAUGUAGUUGCCGAGGAGGAGGUUUAUCGAUUUUUCAGCGGAUGCCGCCAAA [A33C A53U G59A U69G]	0.000208 ± 8.8e-05		
AUAAAAGCGCCAGAACUACAGAAAUGUAGUUUACAAGGAGGAGGUUUAUCGAAUGUUCGGCGGAUGCAUCCAAA [G32U G35A U55G C68A]	< 1e-05	< 1e-05	
AUAAAAGCGCCAGAACUACAGAAAUGUAGUUGCCAAGGAGGAGGUAUAUCGAAUUUUCGGCGGAUGCCUCCAAA [A33C G35A U46A]	< 1e-05		
AUAAAAGCGCCAGAACUACAGAAAUGUAGUUGCCGAGGAGGAGGUUUAUCGGAUUUUCGGCGGAUGUCUCCAAA [A33C A52G C67U]	< 1e-05	< 1e-05	
AUAAAAGCGCCAGAACUACAGAAAUGUAGUUGCCGAGGAGGAGGUUUAUCGAAUUUUCGGCGGAUCCGUACAAA [A33C G66C C68G C70A]	< 1e-05		
AUAAAAGCGCCAGAACUACAGAAAUGUAGUUGCCAAGGAGAAGGUUUAUCGAAUUUUCGGCGGAUGCCUCCAAA [A33C G35A G41A]	< 1e-05	< 1e-05	
AUAAAAGCGCCAGAACUACAGAAAUGUAGUUGCCGAGGAGGAUGUUUAUCGAAUUUUCGGCGUAUGCCUCCAAA [A33C G43U G63U]	< 1e-05	< 1e-05	< 1e-05
AUAAAAGCGCCAGAACUACAGAAAUGUAGUUGCAGAGGAGGAGGUUUAUCGAAUUUGCGGCGGAUGCCUCCAAA [A33C C34A U57G]	< 1e-05		
AUAAAAGCGCCAGAACUACAGAAAUGUAGUUUACGAGGAGGAGGUUUAUCGAAUUAUCGGCGGAUGCGUCCAAA [G32U U56A C68G]	0.000222 ± 9e-05		
AUAAAAGCGCCAGAACUACAGAAAUGUAGUUGCCGAGGAGGAGUUUUAUCGAAUUUUCGGCGGAUGCCUCAAAA [A33C G44U C71A]	< 1e-05	< 1e-05	
AUAAAAGCGCCAGAACUACAGAAAUGUAGUUGCCCAGGAGGGGGUUUAUCUAAUUUUCGGCGGAUGCCUGCAAA [A33C G35C A42G G51U C70G]	< 1e-05	< 1e-05	
AUAAAAGCGCCAGAACUACAGAAAUGUAGUUGCCGAAGAGCAGGUUUAUCGAAUUCUCGGCGGAUGCCUCCAAA [A33C G37A G41C U56C]	< 1e-05		
AUAAAAGCGCCAGAACUACAGAAAUGUAGUUGCCGAGGAGGUGGUUUAUCGAAUUUUCGGCGGAUGCCUCCAAA [A33C A42U]	< 1e-05	< 1e-05	
AUAAAAGCGCCAGAACUACAGAAAUGUAGUUGCCGAGGAGGAGGUUUAUCGAAUUUUCGGAGGUUGCUUCCAAA [A33C C61A A64U C68U]	< 1e-05		
AUAAAAGCGCCAGAACUACAGAAAUGUAGUUGCCGUUGAGGAGGUUUAUCGAAUUUUCGGCGGAUGCCUCUAAA [A33C A36U G37U C71U]	< 1e-05	< 1e-05	
AUAAAAGCGCCAGAACUACAGAAAUGUAGUUGCCGAGGAGGAGGUUUCUCGAAUUUUCGGCGGAUGCCUCAAAA [A33C A48C C71A]	< 1e-05	< 1e-05	
AUAAAAGCGCCAGAACUACAGAAAUGUAGUUUACGAGGAGGAGGUUAAUCGAGUUAUCGGCGGAUGCCUCUAAA [G32U U47A A53G U56A C71U]	7.91e-05 ± 2.4e-05	0.000259 ± 6.2e-05	
AUAAAAGCGCCAGAACUACAGAAAUGUAGUUGCCGAGGAGGAGGUUUAUCGCAUUUUCGGCGGAUGCCUCCAAA [A33C A52C]	< 1e-05	< 1e-05	
AUAAAAGCGCCAGAACUACAGAAAUGUAGUUGCCGAGAAGGAGGUUGAUCGAAUUUUCGGCGGAUGCCUCCAAA [A33C G38A U47G]	< 1e-05	< 1e-05	
AUAAAAGCGCCAGAACUACAGAAAUGUAGUUGCCGAGGAGGAGCUUUAUCGAAUUUUUGGAGGAUGCCUCCAAA [A33C G44C C58U C61A]	< 1e-05	< 1e-05	
